The source of these data is paper PMC2808764.

For this assay, the target named is GST-βPIX (UniProt Q14155). In words: pull-down.

The substance “His-tagged MYO18A-CB (His-MYO18A-CB) (domain or fragment)” came in with a fold amount pulled down, against GST-GIT1 of 2 fold.
